The record followed here is US20240132599A1.

Substitutions are numbered along the chain they refer to. Values joined by “and” are separate entries in the source; they are usually repeats but may differ in a detail not shown here. Equal values may be shown once.

First the molecules themselves.
B1: ADT1-7-20 (antibody, IgG1, V domains shown)
VH: EVQLVESGGGLVKPGGSLRLSCAASGFTFSDYYMSWIRQAPGKGLEWVSYISSSGSTIYYADSVKGRFTISRDNAKNSLYLQMNSLRAEDTAVYYCARVDYQEAFDIWGQGTLVTVSS
VL: DIQMTQSPSSLSASVGDRVTIACRAGQSIGTYLNWYQQKPGKAPKLLIYVASSLQSGVPSRFSGSGSGTEFTLTISSLQPEDFATYYCQQSYSGLDTFGRGTKVEIK
B2: ADT1-7-3 (antibody, IgG1, V domains shown)
VH: B1 VH with D100S, Q102A
VL: B1 VL
B3: ADT1-7-61 (antibody, IgG1, V domains shown)
VH: B1 VH with V99D, Q102D, E103D
VL: B1 VL with Y92A, G94E, D96L
B4: ADT1-4 (parental) (antibody, IgG1, V domains shown)
VH: QVQLQQSGPGLVKPSQTLSLTCAISGDSVSSKSAAWNWIRQSPSRGLEWLGRTYYRSKWSTDYAASVKSRITINPDTSKNQLSLQLNSVTPEDTAVYYCARTWSGYVDVWGQGTLVTVSS
VL: ASDIQMTQSPPALSASVGDRVTITCRASQDINDWLAWYQHKPGKAPKLLIYDASSLESGVPSRFSGSGSGTEFTLTISSLQPDDFATYYCQQSYSTPQVTFGQGTRLEIK
B5: ADT1-4-112 (antibody, IgG1, V domains shown)
VH: B4 VH with Q1E, S104V, V109Y
VL: DIQMTQSPPALSASVGDRVTITCRASQDINDWLAWYQHKPGKAPKLLIYDASSLESGVPLRFSGSGSGTEFTLTISSLQPDDFATYYCQQKYSQPQVTFGQGTRLEIK
B6: ADT1-4-53 (antibody, IgG1, V domains shown)
VH: B4 VH with Q1E, A34V, S104A, G105D
VL: B5 VL with Q94T, V97L
B7: ADT1-4-6 (antibody, IgG1, V domains shown)
VH: B4 VH with Q1E, S104A, V107P
VL: B5 VL with S93K, Q94T
B8: ADT1-4-21 (antibody, IgG1, V domains shown)
VH: B4 VH with Q1E, A34V, S104A, G105D
VL: B5 VL with Q94T, Q96W
B9: ADT1-4-1 (antibody, IgG1, V domains shown)
VH: B4 VH with Q1E, S104V, V107A
VL: B5 VL with K91R, Q94T, Q96I
B10: ADT1-4-143 (antibody, IgG1, V domains shown)
VH: B4 VH with Q1E, Q5L, S104V, V107A
VL: B5 VL with K91R, Q94T, P95H, E106V
B11: ADT1-4-86 (antibody, IgG1, V domains shown)
VH: B4 VH with Q1E, A34V, S104L, Y106N
VL: B5 VL with Q94E
B12: ADT1-4-138 (antibody, IgG1, V domains shown)
VH: B4 VH with Q1E, S104A, G105D
VL: B5 VL with L60S, K91R, Q94T, P95D
B13: ADT1-4-19 (antibody, IgG1, V domains shown)
VH: B4 VH with Q1E, S104V, V109R
VL: B5 VL with Q94T, Q96K
B14: ADT1-4-31 (antibody, IgG1, V domains shown)
VH: B4 VH with Q1E, S104V, V107A
VL: B5 VL with K91R, Q94T, Q96P
B15: ADT1-4-2 (antibody, IgG1, V domains shown)
VH: B4 VH with Q1E, S104V, V109R
VL: B5 VL with Q94A
B16: ADT1-4-6/ADT3-2 (bispecific antibody)
heavy: EVQLQQSGPGLVKPSQTLSLTCAISGDSVSSKSAAWNWIRQSPSRGLEWLGRTYYRSKWSTDYAASVKSRITINPDTSKNQLSLQLNSVTPEDTAVYYCARTWAGYPDVWGQGTLVTVSSASTKGPSVFPLAPSSKSTSGGTAALGCLVKDYFPEPVTVSWNSGALTSGVHTFPAVLQSSGLYSLSSVVTVPSSSLGTQTYICNVNHKPSNTKVDKKVEPKSCDKTHTCPPCPAPELAGAPSVFLFPPKPKDTLMISRTPEVTCVVVDVSHEDPEVKFNWYVDGVEVHNAKTKPREEQYNSTYRVVSVLTVLHQDWLNGKEYKCKVSNKALPAPIEKTISKAKGQPREPQVYTLPPSRDELEEGPVSLTCLVKGFYPSDIAVEWESTYGPENNYKTTPPVLDSDGSFFLYSKLTVSYWRWYKGNVFSCSVMHEALHNHYTQKSLSLSPG
VL: B5 VL with S93K, Q94T
B17: ADT1-4-138/ADT3-2 (bispecific antibody)
heavy: B16 heavy with G105D, P107V
VL: B5 VL with L60S, K91R, Q94T, P95D

In the first assay the target is Vδ1 TCR on human Vδ1-positive γδ T cells (human), A0A1B0. The assay is described as follows: cell-based or functional assay.
Vδ1 TCR on human Vδ1-positive γδ T cells (human), A0A1B0, sequence (A0A1B0 entry or part of it mutant limits assumed): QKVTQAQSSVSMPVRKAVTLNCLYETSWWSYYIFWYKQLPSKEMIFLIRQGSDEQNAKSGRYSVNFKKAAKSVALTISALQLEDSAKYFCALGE
For B1, the IC50 TCR DR (no THP-1) is 160 pM and 164 pM; the IC90 TCR DR (noTHP-1) was 1 nM and 1.04 nM.

As for B2, the IC50 TCR DR (no THP-1) was 160 pM and 161 pM; the IC90 TCR DR (noTHP-1) stood at 0.79 nM.

Turning to B3, the IC50 TCR DR (no THP-1) was 6300 pM and 6260 pM; the IC90 TCR DR (noTHP-1) came to 1700 nM.

Molecule B4 came in with an IC50 TCR downregulation (soluble assay, added in solution) of 38.3 nM.

As for B5, the IC50 TCR DR (no THP-1) is 300 pM and 295 pM; the IC90 TCR DR (noTHP-1) was 1.1 nM and 1.09 nM.

In the case of B6, the IC50 TCR DR (no THP-1) was 250 pM and 254 pM; the IC90 TCR DR (noTHP-1) is 0.7 nM and 0.698 nM.

As to B7, the IC50 TCR DR (no THP-1) was found to be 480 pM; the IC90 TCR DR (noTHP-1) is 1.9 nM and 1.91 nM.

B8: the IC50 TCR DR (no THP-1) was 270 pM and 266 pM; the IC90 TCR DR (noTHP-1) is 0.89 nM and 0.892 nM.

For B9, the IC50 TCR DR (no THP-1) was 360 pM and the IC90 TCR DR (noTHP-1) stood at 0.67 nM.

With B10, the IC50 TCR DR (no THP-1) was 310 pM and 313 pM; the IC90 TCR DR (noTHP-1) is 0.85 nM and 0.853 nM.

Consider B11, for which the IC50 TCR DR (no THP-1) was 310 pM and 307 pM; the IC90 TCR DR (noTHP-1) stood at 1 nM.

As for B12, the IC50 TCR DR (no THP-1) was 8400 pM and 8380 pM; the IC90 TCR DR (noTHP-1) was 38 nM and 38.3 nM.

As to B13, the IC50 TCR DR (no THP-1) was 370 pM and 367 pM; the IC90 TCR DR (noTHP-1) was 1.6 nM and 1.58 nM.

For the molecule B14, the IC50 TCR DR (no THP-1) is 240 pM and 245 pM; the IC90 TCR DR (noTHP-1) is 1.1 nM and 1.09 nM.

With B15, the IC50 TCR DR (no THP-1) came to 310 pM; the IC90 TCR DR (noTHP-1) is 0.83 nM and 0.834 nM.

For the next assay the target is unchanged.
Assay: not given
B16 displayed a Vδ1 TCR down-regulation (A375 co-culture): % change (at saturation) of 81.9%, a Vδ1 TCR down-regulation (A375 co-culture): EC50 of 6.06 pM and a Vδ1 TCR down-regulation (A375 co-culture): EC95 of 83.6 pM.

On to B17, for which the Vδ1 TCR down-regulation (A375 co-culture): % change (at saturation) is 75.3%, the Vδ1 TCR down-regulation (A375 co-culture): EC50 was 7.98 pM and the Vδ1 TCR down-regulation (A375 co-culture): EC95 worked out at 496 pM.
